{
  "source": "patent US20240400656A1",
  "about": "(WASHINGTON UNIVERSITY, published 2024)",
  "binders": {"B1": {"name": "2H2F3 (antibody, V domains shown)", "VH": "QVQLQQSGAELVRPGVSVKISCKGSGYTFTDYAMHWVKQSHAKSLEWIGIISTYYGNASYNQKFKGKATMTVDKSSSTAYMELARLTSEDSAIYYCARVPYYGSSYAMDYWGQGTSVTVSS", "VL": "DVLMTQTPLSLPVSLGDQASISCRSSQNIVHSDGNTYLEWYLQKPGQSPKLLIYKVSNRFSGVPDRFSGSGSGTDFTLKISRVEAEDLGVYYCFQGSHVPWTFGGGTKLEIK", "notes": "also called IgG-2H2F3-1; 2H2F3-1"}},
  "molecular_target": "T1, RoxP_HypProt_pET-22b",
  "T1 construct": "also called RoxP_6",
  "T1 single chain": "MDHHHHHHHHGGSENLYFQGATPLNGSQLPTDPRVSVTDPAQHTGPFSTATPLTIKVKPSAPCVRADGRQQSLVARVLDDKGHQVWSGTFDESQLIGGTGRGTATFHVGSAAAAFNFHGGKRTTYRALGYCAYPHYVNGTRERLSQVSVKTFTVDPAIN",
  "assay": "indirect ELISA on recombinant RoxP orthologs, absorbance normalized (%)",
  "data": [
    {"binder": "B1", "values": [
      {"measurement": "binding result", "value": "no binding (tested: 330 ng/ml)"}
    ]}
  ]
}
